For test [1], the target named is T1, mouse TNF (mouse, UniProt P06804 80-235).
T1 construct: also called murine TNF; rodent TNF (mouse)
T1 sequence (looked up): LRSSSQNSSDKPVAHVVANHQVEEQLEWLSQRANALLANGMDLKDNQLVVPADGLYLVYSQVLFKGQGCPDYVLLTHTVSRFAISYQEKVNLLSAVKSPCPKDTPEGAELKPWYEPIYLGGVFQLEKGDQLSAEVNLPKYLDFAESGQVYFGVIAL
Description: assay not stated (Table 5, 'Source And Binding Information').

The target of test [2] is T2, mouse IL-17 (mouse, UniProt Q62386 26-158, limits assumed).
T2 construct: also called mouse IL-17A; rodent IL-17 (mouse)
T2 sequence (looked up): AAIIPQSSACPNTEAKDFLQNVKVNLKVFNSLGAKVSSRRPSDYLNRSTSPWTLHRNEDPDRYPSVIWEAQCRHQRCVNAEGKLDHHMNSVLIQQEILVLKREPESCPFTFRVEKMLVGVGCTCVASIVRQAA
Described as above.

The IC50 is the midpoint of a concentration-inhibition curve. Read a high IC50 as lower potency.

B1: 8C11/10F7M11 anti-TNF/IL-17 DVD-Ig protein (bispecific antibody, human IgG1, kappa, L234A L235A)
heavy: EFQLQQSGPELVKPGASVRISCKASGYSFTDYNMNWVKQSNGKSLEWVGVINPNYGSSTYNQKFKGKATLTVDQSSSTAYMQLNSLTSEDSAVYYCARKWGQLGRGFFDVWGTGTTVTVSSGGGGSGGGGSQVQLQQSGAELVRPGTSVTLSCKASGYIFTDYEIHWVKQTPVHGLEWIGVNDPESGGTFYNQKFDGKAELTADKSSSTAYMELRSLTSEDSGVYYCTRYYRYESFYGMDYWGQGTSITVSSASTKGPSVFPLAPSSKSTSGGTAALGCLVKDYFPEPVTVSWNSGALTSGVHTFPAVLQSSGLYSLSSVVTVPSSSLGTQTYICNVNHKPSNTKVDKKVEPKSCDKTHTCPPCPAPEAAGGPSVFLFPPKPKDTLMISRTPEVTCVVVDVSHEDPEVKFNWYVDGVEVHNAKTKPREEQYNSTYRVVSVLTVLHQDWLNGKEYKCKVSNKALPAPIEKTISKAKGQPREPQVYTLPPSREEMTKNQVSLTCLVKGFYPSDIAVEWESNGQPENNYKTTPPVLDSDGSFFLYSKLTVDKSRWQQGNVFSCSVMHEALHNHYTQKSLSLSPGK
light: QIVLSQSPAILSASPGEKVTMTCRASSSVSYMHWFQQKPGSSPKPWIYATSNLASGVPARFSGSGSGTSYSLTISRVEAEDAATYYCQQWSSSPLTFGAGTKLELKRGGSGGGGSGQIVLTQSPAIMSASPGEKVTMTCSASSSISYIYWFQQKPGTSPKRWIYATFELASGVPARFSGSGSGTSYSLTISSMEAEDAATYYCHQRSSYPWTFGGGSKLEIKRTVAAPSVFIFPPSDEQLKSGTASVVCLLNNFYPREAKVQWKVDNALQSGNSQESVTEQDSKDSTYSLSSTLTLSKADYEKHKVYACEVTHQGLSSPVTKSFNRGEC
notes: also called 8C11/10F7 DVD-Ig protein; anti-mouse TNF/IL-17 DVD-Ig
As for B1, the half-inhibitory concentration (IC50) in test [1] amounted to 2 nM; in test [2], 0.13 nM.

B2: anti-murine TNF antibody 8C11 (antibody, mouse IgG2c, V domains shown)
VH: EFQLQQSGPELVKPGASVRISCKASGYSFTDYNMNWVKQSNGKSLEWVGVINPNYGSSTYNQKFKGKATLTVDQSSSTAYMQLNSLTSEDSAVYYCARKWGQLGRGFFDVWGTGTTVTVSS
VL: QIVLSQSPAILSASPGEKVTMTCRASSSVSYMHWFQQKPGSSPKPWIYATSNLASGVPARFSGSGSGTSYSLTISRVEAEDAATYYCQQWSSSPLTFGAGTKLELKR
notes: also called 8C11 anti-TNF Ab; Anti-TNF
In test [1], B2 returned a half-inhibitory concentration (IC50) of 2 nM.

(Values after patent US20160002326A1 (AbbVie / Abbott, published 2016).)
